Test results from patent publication US11541125B2, “Noncrushable pill formulations” (THE REGENTS OF THE UNIVERSITY OF CALIFORNIA, priority 2016, dated 2023).
Where two headings read alike, the source gives them in different places. Square brackets hold non-standard residues; d marks the D form. Side chains are listed from the residue outwards. Peptide text beside a SMILES is read from it. * marks the point of attachment. ξ: configuration not given here. X2 = CN(CCN*)C(=S)Oc1ccc2c3c1O[C@H]1C(=O)CC[C@@]4(O)[C@@H](C2)N(CC2CC2)CC[C@]314; X1 = CN(CCN*)C(=O)Oc1ccc2c3c1OC1C(=O)CCC4(O)C(C2)N(CC2CC2)CCC314; X4 = CN(CCN*)C(=O)Oc1ccc([N+](=O)[O-])cc1; Trt = c1ccc(C(c2ccccc2)(c2ccccc2)*)cc1; ξF = NC(Cc1ccccc1)C(=O)O; Boc = CC(C)(C)OC(=O)*; ξK = NCCCCC(N)C(=O)O; ξC = NC(CS)C(=O)O; ξA = CC(N)C(=O)O

How the values were obtained:
[1] = test system: trypsin and/or chymotrypsin; experiment: pNA release assay (absorbance at 405 nm); type: biochemical; details: 2 mM, incubated with trypsin and/or chymotrypsin, 90 minutes, 37° C.
Procedure: A stock solution of the CAAK(F)-diamino-pNA was prepared in dimethyl sulfoxide (DMSO) to produce a 16.0 mg/mL solution. A 7.5 mg/mL stock solution of the trypsin was prepared in 50 mM NH4HCO3 buffer (pH=8.05). A 7.5 mg/mL stock solution of chymotrypsin was prepared in 50 mM NH4HCO3 buffer (pH=8.05).
A 96 well plate was used for monitoring the solutions at 405 nm using a plate reader. 20 μL of the peptide was combined with 62.0/66.6 μL of no enzyme, trypsin only, chymotrypsin only, or with both enzymes respectively. All solutions were diluted to a total volume of 200 μL using 50 mM NH4HCO3 (pH=8.05). Blanks were prepared by combining the enzymes with DMSO/buffer and their absorbances were subtracted from the cleavage conditions. Additionally, the residual signal from the peptide in the presence of no enzymes was also used as a blank and subtracted out from enzymatic conditions.

[2] = Procedure: In order to determine the stability of the enzymatically cleavable covalent linkage between the dual-enzyme responsive peptide and Naltrexone, the drug conjugates (below) were synthesized and subjected to a range of different pH buffers that were chosen to emulate the pH range of typical household chemicals (pH 2-10).
The stabilities of these linkages were assessed by HPLC by monitoring the relative amount of Naltrexone versus the intact peptide-Naltrexone conjugate.

[3] = conjugate sample, no pH buffer named

Structure (SMILES)	theoretical pNA released [1] [%]	stability over the entire pH range ([2]; HPLC, pH buffers)	Percent Degradation, t = 0.5 hr [2, 3] [%]	Percent Degradation, t = 24 hr [2, 3] [%]	Percent Degradation, t = 0.5 hr ([2]; in pH 2) [%]	Percent Degradation, t = 0.5 hr ([2]; in pH 4) [%]	Percent Degradation, t = 0.5 hr ([2]; in pH 7) [%]	stability of the linkage relative to the other linkers ([2]; HPLC, Naltrexone versus intact conjugate, pH buffers)	Percent Degradation, t = 24 hr ([2]; in pH 2) [%]
CC(=O)NC(CS)C(=O)NC(C)C(=O)NC(C)C(=O)NC(CCCCNC(=O)C(N)Cc1ccccc1)C(=O)NCCN(C)C(=O)Oc1ccc([N+](=O)[O-])cc1 (centres unmarked) [CAAK(F)-diamino-pNA] (Ac-CAAK(Phe)-X4; configuration not given here)	55	–	–	–	–	–	–	–	–
CC(=O)NC(CSC(c1ccccc1)(c1ccccc1)c1ccccc1)C(=O)NC(C)C(=O)NC(C)C(=O)NC(CCCCNC(=O)C(Cc1ccccc1)NC(=O)OC(C)(C)C)C(=O)NCCN(C)C(=O)Oc1ccc2c3c1OC1C(=O)CCC4(O)C(C2)N(CC2CC2)CCC314 (centres unmarked) [NPC] (Ac-C(Trt)AAK([Phe-Boc])-X1; configuration not given here)	–	very good stability	0	0	6.00	3.50	1.50	–	–
CC(=O)NC(CS)C(=O)NC(C)C(=O)NC(C)C(=O)NC(CCCCNC(=O)C(N)Cc1ccccc1)C(=O)NCCN(C)C(=S)Oc1ccc2c3c1O[C@H]1C(=O)CC[C@@]4(O)[C@@H](C2)N(CC2CC2)CC[C@]314 (some centres unmarked) [NPT] (Ac-[ξC][ξA][ξA][ξK](ξF)-X2)	–	–	0.51	2.90	–	–	–	more stable than the carbamate linker	4.10
